Data reported in patent US20240301064A1 (published 2024).

Legend:
[1] = target: PD-1 on PD-1 reporter Jurkat cells; test: cell-based or functional assay
human PD-1 = target: T1, human PD-1 (human, UniProt Q15116 25-167, limits assumed); test: BLI, antibody on AHC tip
T1 construct: also called huPD-1

human MAdCAM [2] = target: T2, human MAdCAM (human, UniProt Q13477 19-317, limits assumed); test: BLI Octet
T2 construct: also called huMAdCAM
T2 sequence (looked up): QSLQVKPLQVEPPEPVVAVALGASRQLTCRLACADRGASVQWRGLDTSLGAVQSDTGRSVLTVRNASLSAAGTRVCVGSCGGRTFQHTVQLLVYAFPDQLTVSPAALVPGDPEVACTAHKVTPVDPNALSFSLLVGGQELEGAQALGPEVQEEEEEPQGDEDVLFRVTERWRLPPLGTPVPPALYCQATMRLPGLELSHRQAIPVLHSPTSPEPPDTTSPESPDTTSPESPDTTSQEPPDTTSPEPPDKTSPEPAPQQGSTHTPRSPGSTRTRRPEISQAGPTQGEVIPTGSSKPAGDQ
Procedure: (§1) Anti-human Fc biosensors were equilibrated in assay buffer (1% BSA in 1×PBS with 0.05% Tween-20) for 10 minutes before the experiment was set-up. Test articles were diluted to 5 μg/mL in assay buffer and 200 μL pipetted to 96 well plate. Human MAdCAM was titrated down, two-fold dilutions (starting at 600 nM as the highest concentration, 7-point dilution). Experiment was run using data acquisition software version 10.0 for OCTET96 RED. Test articles were captured using anti-human Fc biosensors for 180 s. Biosensors loaded with test articles were then equilibrated in assay buffer for 120 s. Association was performed in wells with huMAdCAM for 180 seconds. Dissociation was performed in wells with assay buffer for 180 s. Kinetic parameters (kon and kdis) and dissociation constant (KD) were calculated from a 1:1 global fit model using the data analysis software of the Octet96 RED software version 10.

human MAdCAM [3] = target: T2, human MAdCAM; test: BLI Octet, against PRNT1
Procedure: as §1

T1 sequence (Q15116 25-167 limits assumed): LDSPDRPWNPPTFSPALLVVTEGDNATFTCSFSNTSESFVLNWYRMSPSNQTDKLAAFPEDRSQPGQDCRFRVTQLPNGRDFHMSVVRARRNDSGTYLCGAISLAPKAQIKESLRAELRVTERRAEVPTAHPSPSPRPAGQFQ

B1: PMAB61 (bispecific antibody, human IgG1, kappa)
heavy: EVQLVQSGAEVKKPGASVKVSCKASGYSFTSYYMHWVRQAPGQGLEWMGIINPSGGSTSYAQKFQGRVTMTRDTSTSTVYMELSSLRSEDTAVYYCASGWVYWGQGTLVTVSSASTKGPSVFPLAPSSKSTSGGTAALGCLVKDYFPEPVTVSWNSGALTSGVHTFPAVLQSSGLYSLSSVVTVPSSSLGTQTYICNVNHKPSNTKVDKKVEPKSCDKTHTCPPCPAPEAAGAPSVFLFPPKPKDTLMISRTPEVTCVVVDVSHEDPEVKFNWYVDGVEVHNAKTKPREEQYNSTYRVVSVLTVLHQDWLNGKEYKCKVSNKALPAPIEKTISKAKGQPREPQVYTLPPSREEMTKNQVSLTCLVKGFYPSDIAVEWESNGQPENNYKTTPPVLDSDGSFFLYSKLTVDKSRWQQGNVFSCSVMHEALHNHYTQKSLSLSPGGGGGSGGGGSGGGGSEVQLLESGGGLVQPGGSLRLSCAASGFTFSSYWMHWVRQAPGKGLEWVSYISGSGGYTNYADSVKGRFTISRDNSKNTLYLQMNSLRAEDTAVYYCARDRPYYYDMDVWGKGTTVTVSSGGGGSGGGGSGGGGSGGGGSDIQMTQSPSSLSASVGDRVTITCRASQSISSSLAWYQQKPGKAPKLLIYAASSLQSGVPSRFSGSGSGTDFTLTISSLQPEDFATYYCQQYKSYPVTFGQGTKVEIK
light: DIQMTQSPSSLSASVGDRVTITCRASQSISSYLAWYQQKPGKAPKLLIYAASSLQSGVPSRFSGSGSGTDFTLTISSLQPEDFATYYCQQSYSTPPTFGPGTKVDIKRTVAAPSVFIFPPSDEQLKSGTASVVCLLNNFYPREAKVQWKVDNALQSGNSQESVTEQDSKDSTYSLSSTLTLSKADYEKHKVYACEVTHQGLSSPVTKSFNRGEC
- PD-1 reporter Jurkat cells on test-article-loaded MAdCAM-expressing CHO cells; EC50 [1]: 3.02 nM
- SHP-2 recruitment, Ig-tethered test article, PD-1 reporter Jurkat cells; EC50 (second experiment) [1]: 4.45 nM

B2: PMAB182 (bispecific antibody, human IgG1, kappa)
heavy: EVQLLESGGGLVQPGGSLRLSCAASGFTFSSYAMSWVRQAPGKGLEWVSGISGSGGSTYYADSVKGRFTISRDNSKNTLYLQMNSLRAEDTAVYYCARGRGGSGWLDYWGQGTLVTVSSASTKGPSVFPLAPSSKSTSGGTAALGCLVKDYFPEPVTVSWNSGALTSGVHTFPAVLQSSGLYSLSSVVTVPSSSLGTQTYICNVNHKPSNTKVDKKVEPKSCDKTHTCPPCPAPEAAGAPSVFLFPPKPKDTLMISRTPEVTCVVVDVSHEDPEVKFNWYVDGVEVHNAKTKPREEQYNSTYRVVSVLTVLHQDWLNGKEYKCKVSNKALPAPIEKTISKAKGQPREPQVYTLPPSREEMTKNQVSLTCLVKGFYPSDIAVEWESNGQPENNYKTTPPVLDSDGSFFLYSKLTVDKSRWQQGNVFSCSVMHEALHNHYTQKSLSLSPGGGGGSGGGGSGGGGSEVQLLESGGGLVQPGGSLRLSCAASGFTFSDFWMHWVRQAPGKGLEWISYISGDSGYTNYADSVKGRFTISRDNSKNTLYLQMNSLRAEDTAVYYCARDRPYYYYMDVWGKGTTVTVSSGGGGSGGGGSGGGGSGGGGSDIQMTQSPSSLSASVGDRVTITCRASQSVSRSLAWYQQKPGKAPKLLIYAASSLQSGVPSRFSGSGSGTDFTLTISSLQPEDFATYYCQQYKSYPVTFGQGTKVEIK
light: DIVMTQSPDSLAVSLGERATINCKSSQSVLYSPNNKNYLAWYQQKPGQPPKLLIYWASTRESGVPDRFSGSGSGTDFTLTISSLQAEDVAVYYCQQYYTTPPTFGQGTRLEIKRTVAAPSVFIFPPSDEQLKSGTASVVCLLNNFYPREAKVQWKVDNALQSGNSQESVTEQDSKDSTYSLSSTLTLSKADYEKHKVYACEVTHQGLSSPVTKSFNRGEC
- binding result (human PD-1): no binding (tested: 1000 nM)

B3: PMAB184 (bispecific antibody, human IgG1, kappa)
heavy: EVQLLESGGGLVQPGGSLRLSCAASGFTFSSYDMSWVRQAPGKGLEWVSAISGSGGSTYYADSVKGRFTISRDNSKNTLYLQMNSLRAEDTAVYYCARGRGGSGWLDYWGQGTLVTVSSASTKGPSVFPLAPSSKSTSGGTAALGCLVKDYFPEPVTVSWNSGALTSGVHTFPAVLQSSGLYSLSSVVTVPSSSLGTQTYICNVNHKPSNTKVDKKVEPKSCDKTHTCPPCPAPEAAGAPSVFLFPPKPKDTLMISRTPEVTCVVVDVSHEDPEVKFNWYVDGVEVHNAKTKPREEQYNSTYRVVSVLTVLHQDWLNGKEYKCKVSNKALPAPIEKTISKAKGQPREPQVYTLPPSREEMTKNQVSLTCLVKGFYPSDIAVEWESNGQPENNYKTTPPVLDSDGSFFLYSKLTVDKSRWQQGNVFSCSVMHEALHNHYTQKSLSLSPGGGGGSGGGGSGGGGSEVQLLESGGGLVQPGGSLRLSCAASGFTFSDFWMHWVRQAPGKGLEWISYISGDSGYTNYADSVKGRFTISRDNSKNTLYLQMNSLRAEDTAVYYCARDRPYYYYMDVWGKGTTVTVSSGGGGSGGGGSGGGGSGGGGSDIQMTQSPSSLSASVGDRVTITCRASQSVSRSLAWYQQKPGKAPKLLIYAASSLQSGVPSRFSGSGSGTDFTLTISSLQPEDFATYYCQQYKSYPVTFGQGTKVEIK
light: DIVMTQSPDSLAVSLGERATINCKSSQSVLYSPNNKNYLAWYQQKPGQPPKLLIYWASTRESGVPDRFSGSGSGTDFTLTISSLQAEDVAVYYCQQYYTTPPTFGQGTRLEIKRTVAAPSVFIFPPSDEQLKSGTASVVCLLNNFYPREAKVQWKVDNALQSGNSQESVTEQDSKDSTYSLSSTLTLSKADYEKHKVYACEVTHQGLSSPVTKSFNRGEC
- binding result (human PD-1): no binding (tested: 1000 nM)

B4: MIAB169 (antibody, human IgG1, kappa)
heavy: EVQLLESGGGLVQPGGSLRLSCAASGFTFSDFWMHWVRQAPGKGLEWISYISGDSGYTNYADSVKGRFTISRDNSKNTLYLQMNSLRAEDTAVYYCARDRPYYYIMDVWGKGTTVTVSSASTKGPSVFPLAPSSKSTSGGTAALGCLVKDYFPEPVTVSWNSGALTSGVHTFPAVLQSSGLYSLSSVVTVPSSSLGTQTYICNVNHKPSNTKVDKKVEPKSCDKTHTCPPCPAPEAAGAPSVFLFPPKPKDTLMISRTPEVTCVVVDVSHEDPEVKFNWYVDGVEVHNAKTKPREEQYNSTYRVVSVLTVLHQDWLNGKEYKCKVSNKALPAPIEKTISKAKGQPREPQVYTLPPSREEMTKNQVSLTCLVKGFYPSDIAVEWESNGQPENNYKTTPPVLDSDGSFFLYSKLTVDKSRWQQGNVFSCSVMHEALHNHYTQKSLSLSPGGGGGSAPTSSSTKKTQLQLEHLLLDLQMILNGINNYKNPKLTRMLTFKFYMPKKATELKHLQCLEEELKPLEEALNLAPSKNFHLRPRDLISDINVIVLELKGSETTFMCEYADETATIVEFINRWITFSQSIISTLT
light: DIQMTQSPSSLSASVGDRVTITCRASQSVSRSLAWYQQKPGKAPKLLIYAASSLQSGVPSRFSGSGSGTDFTLTISSLQPEDFATYYCQQYKSYPVTFGQGTKVEIKRTVAAPSVFIFPPSDEQLKSGTASVVCLLNNFYPREAKVQWKVDNALQSGNSQESVTEQDSKDSTYSLSSTLTLSKADYEKHKVYACEVTHQGLSSPVTKSFNRGEC
notes: also called MIAB169-CHO; MIAB169-HEK
- fold lower affinity than parent PRNT1 (human MAdCAM [2]): 10 fold

B5: MIAB184 (antibody, human IgG1, kappa)
heavy: EVQLLESGGGLVQPGGSLRLSCAASGFTFSSYWMHWVRQAPGKGLEWVSAISGSGGSTYYADSVKGRFTISRDNSKNTLYLQMNSLRAEDTAVYYCARDRPYYYYMDVWGKGTTVTVSSASTKGPSVFPLAPSSKSTSGGTAALGCLVKDYFPEPVTVSWNSGALTSGVHTFPAVLQSSGLYSLSSVVTVPSSSLGTQTYICNVNHKPSNTKVDKKVEPKSCDKTHTCPPCPAPEAAGAPSVFLFPPKPKDTLMISRTPEVTCVVVDVSHEDPEVKFNWYVDGVEVHNAKTKPREEQYNSTYRVVSVLTVLHQDWLNGKEYKCKVSNKALPAPIEKTISKAKGQPREPQVYTLPPSREEMTKNQVSLTCLVKGFYPSDIAVEWESNGQPENNYKTTPPVLDSDGSFFLYSKLTVDKSRWQQGNVFSCSVMHEALHNHYTQKSLSLSPGGGGGSAPTSSSTKKTQLQLEHLLLDLQMILNGINNYKNPKLTRMLTFKFYMPKKATELKHLQCLEEELKPLEEALNLAPSKNFHLRPRDLISDINVIVLELKGSETTFMCEYADETATIVEFINRWITFSQSIISTLT
light: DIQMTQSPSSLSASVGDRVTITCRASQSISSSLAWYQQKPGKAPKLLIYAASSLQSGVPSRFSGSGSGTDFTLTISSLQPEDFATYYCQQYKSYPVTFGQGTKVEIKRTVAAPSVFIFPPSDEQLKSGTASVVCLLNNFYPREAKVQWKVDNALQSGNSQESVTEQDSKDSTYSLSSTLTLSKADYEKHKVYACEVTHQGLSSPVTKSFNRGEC
notes: also called MIAB184-001
- fold reduction of MAdCAM affinity (human MAdCAM [3]): 40 fold

B6: MIAB183 (antibody, human IgG1, kappa)
heavy: EVQLLESGGGLVQPGGSLRLSCAASGFTFSSYWMHWVRQAPGKGLEWVSAISGSGGSTYYADSVKGRFTISRDNSKNTLYLQMNSLRAEDTAVYYCARDRPYYYYMDVWGKGTTVTVSSASTKGPSVFPLAPSSKSTSGGTAALGCLVKDYFPEPVTVSWNSGALTSGVHTFPAVLQSSGLYSLSSVVTVPSSSLGTQTYICNVNHKPSNTKVDKKVEPKSCDKTHTCPPCPAPEAAGAPSVFLFPPKPKDTLMISRTPEVTCVVVDVSHEDPEVKFNWYVDGVEVHNAKTKPREEQYNSTYRVVSVLTVLHQDWLNGKEYKCKVSNKALPAPIEKTISKAKGQPREPQVYTLPPSREEMTKNQVSLTCLVKGFYPSDIAVEWESNGQPENNYKTTPPVLDSDGSFFLYSKLTVDKSRWQQGNVFSCSVMHEALHNHYTQKSLSLSPGGGGGSAPTSSSTKKTQLQLEHLLLDLQMILNGINNYKNPKLTRMLTFKFYMPKKATELKHLQCLEEELKPLEEALNLAPSKNFHLRPRDLISDINVIVLELKGSETTFMCEYADETATIVEFINRWITFSQSIISTLT
light: DIQMTQSPSSLSASVGDRVTITCRASQSVSSSLAWYQQKPGKAPKLLIYAASSLQSGVPSRFSGSGSGTDFTLTISSLQPEDFATYYCQQYKSYPVTFGQGTKVEIKRTVAAPSVFIFPPSDEQLKSGTASVVCLLNNFYPREAKVQWKVDNALQSGNSQESVTEQDSKDSTYSLSSTLTLSKADYEKHKVYACEVTHQGLSSPVTKSFNRGEC
notes: also called MIAB183-001
- fold reduction of MAdCAM affinity (human MAdCAM [3]): 20 fold

B7: MIAB182 (antibody, human IgG1, kappa)
heavy: EVQLLESGGGLVQPGGSLRLSCAASGFTFSSYWMHWVRQAPGKGLEWVSAISGSGGSTYYADSVKGRFTISRDNSKNTLYLQMNSLRAEDTAVYYCARDRPYYYYMDVWGKGTTVTVSSASTKGPSVFPLAPSSKSTSGGTAALGCLVKDYFPEPVTVSWNSGALTSGVHTFPAVLQSSGLYSLSSVVTVPSSSLGTQTYICNVNHKPSNTKVDKKVEPKSCDKTHTCPPCPAPEAAGAPSVFLFPPKPKDTLMISRTPEVTCVVVDVSHEDPEVKFNWYVDGVEVHNAKTKPREEQYNSTYRVVSVLTVLHQDWLNGKEYKCKVSNKALPAPIEKTISKAKGQPREPQVYTLPPSREEMTKNQVSLTCLVKGFYPSDIAVEWESNGQPENNYKTTPPVLDSDGSFFLYSKLTVDKSRWQQGNVFSCSVMHEALHNHYTQKSLSLSPGGGGGSAPTSSSTKKTQLQLEHLLLDLQMILNGINNYKNPKLTRMLTFKFYMPKKATELKHLQCLEEELKPLEEALNLAPSKNFHLRPRDLISDINVIVLELKGSETTFMCEYADETATIVEFINRWITFSQSIISTLT
light: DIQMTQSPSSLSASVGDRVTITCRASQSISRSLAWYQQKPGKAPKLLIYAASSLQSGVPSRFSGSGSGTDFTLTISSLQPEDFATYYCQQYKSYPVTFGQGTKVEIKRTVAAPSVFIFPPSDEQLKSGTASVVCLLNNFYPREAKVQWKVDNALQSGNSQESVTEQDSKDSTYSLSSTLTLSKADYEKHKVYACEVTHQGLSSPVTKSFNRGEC
notes: also called MIAB182-001
- fold reduction of MAdCAM affinity (human MAdCAM [3]): 10 fold
